Test results as given in patent EP4610267A1, “CYCLIC DINUCLEOTIDES AND CONJUGATES THEREOF WITH ANTIBODIES” (priority 2024, dated 2025).

What was measured:
[1] = In vitro mouse plasma stability of antibody-CDN conjugates (payload CDN 2.2 retention on mAb by LC-MS); assay type: in vitro ADME; settings: retention of CDN 2.2 on mAb
Procedure: (§1) In vitro plasma stability of ADC was performed by spiking mouse plasma with antibody-CDN conjugates (final concentration 100µg/mL). Samples were incubated in a 37°C incubator with 5% CO2, aliquots were taken at various time points and stored frozen for analysis.
(§2) Briefly, 25µL of plasma samples were incubated with biotinylated anti-human Fcy fragment mAb (final concetration 0.18mg/mL, Jackson ImmunoResearch cat # 109-065-098) for 30 min and then mixed with 30 µL Dynabead MyOne Streptavidin T1 (Invitrogen cat # 65604D) and 70 µL PBS. After 1 hour incubation, the beads were separated on a magnet, washed with PBS containing 0.05% Tween20, PBS and water, and ADCs were eluted in the presence of 0.2% of formic acid in water. Eluate was neutralized by adding ammonium formate (400mM final concentration) and ADCs were reduced with TCEP (40mM final concentration) for 30 minutes at room temperature. Samples were then measured by LC-MS and analyzed for compound-to-antibody ratio as described above.

[2] = Compound-to-antibody ratio (DAR) of antibody CDN conjugates by LC-MS
Procedure: Antibody CDN-conjugates were analyzed to determine the extent of conjugation. A compound-to-antibody ratio was extrapolated from LC-MS data for reduced samples. LC-MS allows quantitation of the average number of molecules of linker-payload attached to an antibody in a conjugate sample. Mass spectral data enables identification of the component species in the mixture, e.g., LC, LC+1, LC+2, HC, HC+1, HC+2, etc. From the average loading on the LC and HC chains, the average compound to antibody ratio can be calculated for an antibody conjugate. A compound-to-antibody ratio for a given conjugate sample represents the average number of compound (linker-payload) molecules attached to a tetrameric antibody containing two light chains and two heavy chains. The samples were reduced with 40 mM TCEP or 5.5 mM DTT, injected onto a MassPREP Micro Desalting column (20 µm, 5-mm by 2.1-mm ID, Waters) equilibrated in 0.1% formic acid (FA) in H2O and eluted by a fast gradient (4min) to 0.1% FA in acetonitrile. The separation was carried out by AQUITY UPLC I-Class system (Waters) and was on-line coupled to Mass Spectrometer Synapt G2 (Waters) to acquire mass spectra using electrospray ionization in positive mode. The TOF mass range was set from m/z 500 to 4000. The raw spectrum was subtracted and deconvoluted (MaxEnt 1, Waters) to produce the final spectrum. Conjugates were profiled using analytical size-exclusion chromatography on Superdex 200 equilibrated in PBS pH7.4; aggregation was analyzed based on analytical size exclusion chromatography.

[3] = In vitro mouse plasma stability of antibody-CDN conjugates (payload CDN 2.2 retention on mAb by LC-MS); assay type: in vitro ADME
Procedure: as §1, §2

[4] = target: T1, TROP2 (UniProt P09758 27-323, limits assumed); experiment: cell-based or functional assay
T1 sequence (looked up): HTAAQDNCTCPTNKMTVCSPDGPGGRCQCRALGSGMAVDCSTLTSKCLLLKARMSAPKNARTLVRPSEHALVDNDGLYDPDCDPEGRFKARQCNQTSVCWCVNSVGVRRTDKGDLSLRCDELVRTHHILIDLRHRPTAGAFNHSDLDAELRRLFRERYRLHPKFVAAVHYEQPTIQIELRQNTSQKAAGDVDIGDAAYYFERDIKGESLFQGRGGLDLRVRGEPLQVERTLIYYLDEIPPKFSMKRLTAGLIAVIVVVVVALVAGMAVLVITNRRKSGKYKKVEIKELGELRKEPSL

[5] = target: Her2 (UniProt P04626); experiment: cell-based or functional assay
[6] = monoclonal antibody: anti TROP2 mA5, 37°C
[7] = compound conjugated to anti Her2 mA2 via interchain cysteines

Molecule	HCC1954 IP10 EC50 [4] [nM]	TROP2+ 293T EC50 [4] [nM]	further results
4-((S)-2-((S)-2-(2-(2,5-dioxo-2,5-dihydro-1H-pyrrol-1-yl)acetamido)-3-methylbutanamido)-5-ureidopentanamido)benzyl (2-(((9-((6R,8R,9S,13aR,15R,16R,16aR,17R)-16,17-difluoro-3,11-dimercapto-3,11-dioxido-8-(6-oxo-1,6-dihydro-9H-purin-9-yl)decahydro-6,9-methanofuro[3,2-m][1,3,6,9,12]pentaoxa[2,10]diphosphacyclopentadecin-15-yl)-9H-purin-6-yl)carbamoyl)oxy)ethyl)(methyl)carbamate [Compound 3.3]	–	–	Mouse plasma T ½ ([1]; monoclonal antibody: anti Her2 mA2, 37°C): >15 days; Mouse plasma T ½ [1, 6]: >15 days; Drug Antibody ratio (DAR) [2, 7]: 3.7; Drug Antibody ratio (DAR) ([2]; compound conjugated to isotype mAb (Table 18)): 4.0
CC(C)[C@H](NC(=O)CN1C(=O)C=CC1=O)C(=O)N[C@@H](CCCNC(N)=O)C(=O)Nc1ccc(COC(=O)N(C)CCOC(=O)Nc2ncnc3c2ncn3[C@@H]2O[C@H]3COP(=O)(S)O[C@@H]4[C@H](F)[C@@H](COP(=O)(S)OC[C@H]3[C@H]2F)O[C@H]4n2cnc3c(=O)[nH]cnc32)cc1 (stereo partly drawn) [Compound 3.3, 4-((S)-2-((S)-2-(2-(2,5-dioxo-2,5-dihydro-1H-pyrrol-1-yl)acetamido)-3-methylbutanamido)-5-ureidopentanamido)benzyl (2-(((9-((6R,8R,9S,13aR,15R,16R,16aR,17R)-16,17-difluoro-3,11-dimercapto-3,11-dioxido-8-(6-oxo-1,6-dihydro-9H-purin-9-yl)decahydro-6,9-methanofuro[3,2-m][1,3,6,9,12]pentaoxa[2,10]diphosphacyclopentadecin-15-yl)-9H-purin-6-yl)carbamoyl)oxy)ethyl)(methyl)carbamate]	–	–	attachment to anti Her2 mAb2 in mouse plasma ([3]; attached to anti Her2 mAb2 via interchain cysteines (Fig. 3)): stable over period up to 15 days; retention on anti-TROP2 mAb5 ([3]; attached to engineered light chain V110C and heavy chain S375C of mAb5 (Fig. 4)): excellent retention
(2S)-N-((2S)-1-((4-((((6R,8R,9S,13aR,15R,16R,16aR,17R)-15-(6-amino-9H-purin-9-yl)-16,17-difluoro-3-mercapto-3,11-dioxido-8-(6-oxo-1,6-dihydro-9H-purin-9-yl)decahydro-6,9-methanofuro[3,2-m][1,3,6,9,12]pentaoxa[2,10]diphosphacyclopentadecin-11-yl)thio)methyl)phenyl)amino)-1-oxopropan-2-yl)-2-(2-(2,5-dioxo-2,5-dihydro-1H-pyrrol-1-yl)acetamido)-3-methylbutanamide [Compound 3.19, reference compound]	–	–	Drug Antibody ratio (DAR) [2, 7]: 2.5
4-((S)-2-((S)-2-(2-(2,5-dioxo-2,5-dihydro-1H-pyrrol-1-yl)acetamido)-3-methylbutanamido)-5-ureidopentanamido)benzyl (9-((6R,8R,9S,13aR,15R,16R,16aR,17R)-16,17-difluoro-3,11-dimercapto-3,1 1-dioxido-8-(6-oxo-1,6-dihydro-9H-purin-9-yl)decahydro-6,9-methanofuro[3,2-m][1,3,6,9,12]pentaoxa[2,10]diphosphacyclopentadecin-15-yl)-9H-purin-6-yl)carbamate [Compound 3.13]	–	–	Mouse plasma T ½ [1, 6]: 9.6 days
anti-TROP2 mAb5 (Sacituzumab, heavy chain S375C, light chain V110C) conjugated with Compound 3.3 (antibody, human IgG1, V domains shown, Compound 3.3 on engineered C110 (EU numbering); Compound 3.3 on engineered C375 (EU numbering); DAR 3.7 for the whole antibody) VH: QVQLQQSGSELKKPGASVKVSCKASGYTFTNYGMNWVKQAPGQGLKWMGWINTYTGEPTYTDDFKGRFAFSLDTSVSTAYLQISSLKADDTAVYFCARGGFGSSYWYFDVWGQGSLVTVSS VL: DIQLTQSPSSLSASVGDRVSITCKASQDVSIAVAWYQQKPGKAPKLLIYSASYRYTGVPDRFSGSGSGTDFTLTISSLQPEDFAVYYCQQHYITPLTFGAGTKVEIKR	8	8	–
anti-TROP2 mAb5 (Sacituzumab, heavy chain S375C, light chain V110C) conjugated with Compound 3.13 (antibody, human IgG1, V domains shown, Compound 3.13 on engineered C110 (EU numbering); Compound 3.13 on engineered C375 (EU numbering); DAR 3.3 for the whole antibody) VH: QVQLQQSGSELKKPGASVKVSCKASGYTFTNYGMNWVKQAPGQGLKWMGWINTYTGEPTYTDDFKGRFAFSLDTSVSTAYLQISSLKADDTAVYFCARGGFGSSYWYFDVWGQGSLVTVSS VL: DIQLTQSPSSLSASVGDRVSITCKASQDVSIAVAWYQQKPGKAPKLLIYSASYRYTGVPDRFSGSGSGTDFTLTISSLQPEDFAVYYCQQHYITPLTFGAGTKVEIKR	2	3	–
anti-TROP2 mAb5 (Sacituzumab, heavy chain S375C, light chain V110C) conjugated with Compound 3.18 (antibody, human IgG1, V domains shown, Compound 3.18 on engineered C110 (EU numbering); Compound 3.18 on engineered C375 (EU numbering); DAR 3.6 for the whole antibody) VH: QVQLQQSGSELKKPGASVKVSCKASGYTFTNYGMNWVKQAPGQGLKWMGWINTYTGEPTYTDDFKGRFAFSLDTSVSTAYLQISSLKADDTAVYFCARGGFGSSYWYFDVWGQGSLVTVSS VL: DIQLTQSPSSLSASVGDRVSITCKASQDVSIAVAWYQQKPGKAPKLLIYSASYRYTGVPDRFSGSGSGTDFTLTISSLQPEDFAVYYCQQHYITPLTFGAGTKVEIKR	6	2	–
anti-TROP2 mAb5 (Sacituzumab, heavy chain S375C, light chain V110C) conjugated with Compound 3.16 (antibody, human IgG1, V domains shown, Compound 3.16 on engineered C110 (EU numbering); Compound 3.16 on engineered C375 (EU numbering); DAR 3.3 for the whole antibody) VH: QVQLQQSGSELKKPGASVKVSCKASGYTFTNYGMNWVKQAPGQGLKWMGWINTYTGEPTYTDDFKGRFAFSLDTSVSTAYLQISSLKADDTAVYFCARGGFGSSYWYFDVWGQGSLVTVSS VL: DIQLTQSPSSLSASVGDRVSITCKASQDVSIAVAWYQQKPGKAPKLLIYSASYRYTGVPDRFSGSGSGTDFTLTISSLQPEDFAVYYCQQHYITPLTFGAGTKVEIKR	5	4	–
anti-TROP2 mAb5 (Sacituzumab, heavy chain S375C, light chain V110C) conjugated with Compound 3.17 (antibody, human IgG1, V domains shown, Compound 3.17 on engineered C110 (EU numbering); Compound 3.17 on engineered C375 (EU numbering); DAR 3.6 for the whole antibody) VH: QVQLQQSGSELKKPGASVKVSCKASGYTFTNYGMNWVKQAPGQGLKWMGWINTYTGEPTYTDDFKGRFAFSLDTSVSTAYLQISSLKADDTAVYFCARGGFGSSYWYFDVWGQGSLVTVSS VL: DIQLTQSPSSLSASVGDRVSITCKASQDVSIAVAWYQQKPGKAPKLLIYSASYRYTGVPDRFSGSGSGTDFTLTISSLQPEDFAVYYCQQHYITPLTFGAGTKVEIKR	8	3	–
isotype mAb Libivirumab (anti HBsAg mAb) conjugated with Compound 3.4 (antibody, human IgG1, kappa, V domains shown) VH: QVQLVESGGGVVRPGRSLRLSCAASGFAFSDYSINWVRQAPGKGLEWVAIISYDGRITYYRDSVKGRFTISRDDSKNTLYLQMNSLRTEDTAVYYCARQYYDFWSGSSVGRNYDGMDVWGLGTTVTVSS VL: DIVMTQSPLSLSVTPGEPASISCRSSQSLLHRSGNNYLDWYLQKPGHSPQLLIYVGSNRASGVPDRFSGSGSGTEYTLKISRVEAEDVGVYYCMQALQTPRTFGQGTKLEIKR	–	–	HCC1954 IP10 EC50 [5]: > 1000 nM
isotype mAb Libivirumab (anti HBsAg mAb) conjugated with Compound 3.3 (antibody, human IgG1, kappa, V domains shown) VH: QVQLVESGGGVVRPGRSLRLSCAASGFAFSDYSINWVRQAPGKGLEWVAIISYDGRITYYRDSVKGRFTISRDDSKNTLYLQMNSLRTEDTAVYYCARQYYDFWSGSSVGRNYDGMDVWGLGTTVTVSS VL: DIVMTQSPLSLSVTPGEPASISCRSSQSLLHRSGNNYLDWYLQKPGHSPQLLIYVGSNRASGVPDRFSGSGSGTEYTLKISRVEAEDVGVYYCMQALQTPRTFGQGTKLEIKR	> 1000	> 1000	HCC1954 IP10 EC50 [5]: > 1000 nM
isotype mAb Libivirumab (anti HBsAg mAb) conjugated with Compound 3.13 (antibody, human IgG1, kappa, V domains shown) VH: QVQLVESGGGVVRPGRSLRLSCAASGFAFSDYSINWVRQAPGKGLEWVAIISYDGRITYYRDSVKGRFTISRDDSKNTLYLQMNSLRTEDTAVYYCARQYYDFWSGSSVGRNYDGMDVWGLGTTVTVSS VL: DIVMTQSPLSLSVTPGEPASISCRSSQSLLHRSGNNYLDWYLQKPGHSPQLLIYVGSNRASGVPDRFSGSGSGTEYTLKISRVEAEDVGVYYCMQALQTPRTFGQGTKLEIKR	> 1000	> 1000	–
